Where a SMILES comes first, the peptide text is derived from it. [ ]: non-standard residue; d: D form. The star is where a group is joined. X1 = O=C(CCCCCCCn1cnc2c(Br)c(Br)c(Br)c(Br)c21)*
Columns and labels:
Test in all cases: Kinase panel residual activity
Assay type in all cases: biochemical
Details in all cases: compound at 1 micromolar
[1] = biological target: T1, BRSK1 (Homo sapiens, UniProt Q8TDC3)
T1 sequence (Q8TDC3 1-778): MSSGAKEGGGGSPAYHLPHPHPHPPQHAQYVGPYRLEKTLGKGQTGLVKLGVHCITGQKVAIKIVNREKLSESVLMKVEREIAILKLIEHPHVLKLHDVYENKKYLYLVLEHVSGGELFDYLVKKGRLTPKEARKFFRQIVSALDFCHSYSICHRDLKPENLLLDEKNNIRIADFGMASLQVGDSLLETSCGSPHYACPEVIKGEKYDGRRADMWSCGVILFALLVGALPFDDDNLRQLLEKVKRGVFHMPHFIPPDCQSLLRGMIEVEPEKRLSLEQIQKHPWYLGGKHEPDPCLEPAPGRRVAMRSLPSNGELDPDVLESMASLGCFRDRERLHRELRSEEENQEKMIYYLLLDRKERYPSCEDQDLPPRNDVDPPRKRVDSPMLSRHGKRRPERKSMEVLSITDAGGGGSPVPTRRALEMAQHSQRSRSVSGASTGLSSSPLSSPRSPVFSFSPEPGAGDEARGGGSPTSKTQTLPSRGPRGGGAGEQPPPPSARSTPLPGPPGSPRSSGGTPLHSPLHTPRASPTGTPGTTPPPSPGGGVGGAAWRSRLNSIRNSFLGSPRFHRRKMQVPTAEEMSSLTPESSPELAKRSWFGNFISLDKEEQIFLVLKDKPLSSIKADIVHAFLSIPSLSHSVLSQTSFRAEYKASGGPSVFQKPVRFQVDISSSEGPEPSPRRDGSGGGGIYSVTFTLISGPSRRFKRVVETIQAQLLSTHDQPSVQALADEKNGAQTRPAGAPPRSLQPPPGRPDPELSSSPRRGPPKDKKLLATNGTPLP

[2] = biological target: HIPK1 (Homo sapiens, UniProt Q86Z02)
HIPK1, sequence (Q86Z02 whole entry, species assumed): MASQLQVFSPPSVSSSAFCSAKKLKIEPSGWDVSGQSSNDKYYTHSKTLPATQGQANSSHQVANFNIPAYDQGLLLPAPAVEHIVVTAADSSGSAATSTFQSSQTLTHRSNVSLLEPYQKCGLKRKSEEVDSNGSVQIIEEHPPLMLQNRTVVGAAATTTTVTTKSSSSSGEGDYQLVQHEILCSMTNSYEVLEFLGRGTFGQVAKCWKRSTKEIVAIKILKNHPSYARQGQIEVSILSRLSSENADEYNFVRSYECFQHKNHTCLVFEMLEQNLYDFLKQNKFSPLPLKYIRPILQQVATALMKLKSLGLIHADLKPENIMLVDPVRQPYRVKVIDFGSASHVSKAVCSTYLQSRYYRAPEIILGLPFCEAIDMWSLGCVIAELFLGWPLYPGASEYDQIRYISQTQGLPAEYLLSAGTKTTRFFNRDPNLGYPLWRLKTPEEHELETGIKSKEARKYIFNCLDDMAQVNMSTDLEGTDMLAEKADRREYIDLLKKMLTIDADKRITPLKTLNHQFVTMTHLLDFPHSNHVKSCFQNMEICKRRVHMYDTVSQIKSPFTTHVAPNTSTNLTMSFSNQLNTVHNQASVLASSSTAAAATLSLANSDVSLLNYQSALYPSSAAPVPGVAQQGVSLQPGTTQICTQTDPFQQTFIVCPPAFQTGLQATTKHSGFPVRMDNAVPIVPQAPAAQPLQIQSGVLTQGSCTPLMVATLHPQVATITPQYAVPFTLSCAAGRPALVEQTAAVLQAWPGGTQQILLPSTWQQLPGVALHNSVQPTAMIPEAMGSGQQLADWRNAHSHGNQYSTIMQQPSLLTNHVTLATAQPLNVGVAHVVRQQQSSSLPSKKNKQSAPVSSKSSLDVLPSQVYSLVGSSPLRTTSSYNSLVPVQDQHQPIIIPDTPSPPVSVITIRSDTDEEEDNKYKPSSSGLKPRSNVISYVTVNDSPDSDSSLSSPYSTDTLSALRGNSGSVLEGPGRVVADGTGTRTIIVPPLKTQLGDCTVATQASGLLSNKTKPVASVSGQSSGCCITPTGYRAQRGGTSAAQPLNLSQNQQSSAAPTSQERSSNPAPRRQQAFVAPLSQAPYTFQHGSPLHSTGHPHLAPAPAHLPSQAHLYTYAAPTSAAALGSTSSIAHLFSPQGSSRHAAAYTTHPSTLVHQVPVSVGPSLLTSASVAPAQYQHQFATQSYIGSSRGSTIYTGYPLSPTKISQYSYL

[3] = biological target: T2, NEK2a (Homo sapiens, UniProt P51955)
T2 sequence (P51955 1-445): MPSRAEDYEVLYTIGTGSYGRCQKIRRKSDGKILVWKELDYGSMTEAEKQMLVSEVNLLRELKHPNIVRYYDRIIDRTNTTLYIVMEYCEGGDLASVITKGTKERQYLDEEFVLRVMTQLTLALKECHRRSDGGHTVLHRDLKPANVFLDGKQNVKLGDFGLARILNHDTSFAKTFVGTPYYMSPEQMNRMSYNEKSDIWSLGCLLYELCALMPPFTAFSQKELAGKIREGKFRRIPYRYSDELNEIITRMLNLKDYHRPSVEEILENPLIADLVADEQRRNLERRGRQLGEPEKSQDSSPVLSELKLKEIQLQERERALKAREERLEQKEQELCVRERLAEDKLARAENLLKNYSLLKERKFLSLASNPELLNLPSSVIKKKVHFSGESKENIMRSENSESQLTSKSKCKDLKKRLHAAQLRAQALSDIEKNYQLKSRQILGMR

[4] = biological target: T3, IKKb (Homo sapiens, UniProt O14920)
T3 sequence (O14920 1-756): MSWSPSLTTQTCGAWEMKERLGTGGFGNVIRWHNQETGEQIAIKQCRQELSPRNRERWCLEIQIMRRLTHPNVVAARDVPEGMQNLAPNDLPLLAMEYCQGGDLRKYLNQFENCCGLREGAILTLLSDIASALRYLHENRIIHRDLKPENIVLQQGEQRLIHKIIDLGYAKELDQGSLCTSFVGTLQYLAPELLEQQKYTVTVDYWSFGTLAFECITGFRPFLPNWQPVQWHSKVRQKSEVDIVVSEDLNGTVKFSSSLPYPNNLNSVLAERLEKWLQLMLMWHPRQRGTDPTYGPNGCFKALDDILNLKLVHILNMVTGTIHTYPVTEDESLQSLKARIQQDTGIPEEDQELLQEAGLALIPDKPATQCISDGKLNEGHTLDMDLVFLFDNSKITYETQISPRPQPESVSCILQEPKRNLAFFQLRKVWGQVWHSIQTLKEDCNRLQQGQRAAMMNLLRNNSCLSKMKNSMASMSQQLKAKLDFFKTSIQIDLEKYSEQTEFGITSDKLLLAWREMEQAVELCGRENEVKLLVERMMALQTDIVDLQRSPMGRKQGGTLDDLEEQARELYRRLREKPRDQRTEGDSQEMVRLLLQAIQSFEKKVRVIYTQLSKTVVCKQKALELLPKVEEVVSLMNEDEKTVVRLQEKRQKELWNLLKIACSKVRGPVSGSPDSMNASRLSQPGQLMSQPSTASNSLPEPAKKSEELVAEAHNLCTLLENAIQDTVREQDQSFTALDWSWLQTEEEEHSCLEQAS

[5] = biological target: PKCγ (Homo sapiens, UniProt P05129)

Q: How did the remaining activity at 1 µM [1] turn out when `NCCCC[C@H](NC(=O)[C@H](CC(=O)O)NC(=O)[C@H](CC(=O)O)NC(=O)[C@H](CC(=O)O)NC(=O)[C@H](CC(=O)O)NC(=O)[C@H](CC(=O)O)NC(=O)[C@@H](CC(=O)O)NC(=O)CCCCCCCn1cnc2c(Br)c(Br)c(Br)c(Br)c21)C(=O)O` [TBBI-OcA-(D-Asp)-(L-Asp)5-(L-Lys)-OH] (X1-[dD]DDDDDK-OH) was run?
A: 95%

Q: And the remaining activity at 1 µM [2]?
A: 68%

Q: And the remaining activity at 1 µM [3]?
A: 94%

Q: What about the remaining activity at 1 µM [4] of the same molecule?
A: 55%

Q: What about the remaining activity at 1 µM [5] of the same molecule?
A: 106%

— patent US9176064B2, “Bisubstrate fluorescent probes for protein kinase CK2” (University of Tartu, priority 2012, dated 2015)
